# Data as given in patent publication US20100311820, “NUCLEIC ACID MODULATORS OF GLYCOPROTEIN VI” (Regado Biosciences, Inc, published 2010).
# B1: EF-31 (RB435) (ssRNA)
# RNA: GGGAGGACGAUGCGGUCUAAGCUGCGUCUGGCAUAAGCCUCACCUACUCGAUACUCAGACGACUCGCUGAGGAUCCGAGA
# modifications: 2'-F C and U; 2'-OH A and G
# B2: RB556 (ssRNA)
# RNA: GGAGGACGGCGCGCCUGGCAUAAGCCUCC
# modifications: RB551 with PS G9-C10
# B3: EF-22 (RB433) (ssRNA)
# RNA: GGGAGGACGAUGCGGAUUCAACCCGCCUCUGGCAUAAGCCUACCCAUCGUGAUUGUCAGACGACUCGCUGAGGAUCCGAGA
# modifications: 2'-F C and U; 2'-OH A and G
# B4: E2-6 T1 (RB432) (ssRNA)
# RNA: GGGAGGACGAUGCGGAUAGACCGCGUCUGGCAUAAGCCUCC
# modifications: 2'-F C and U; 2'-OH A and G
# B5: EF-2 T2 (RB428) (ssRNA)
# RNA: GGGAGGACGAUGCGGUGCCAAAACACCCGUCUUGCAUAAGCCUCCU
# modifications: 2'-F C and U; 2'-OH A and G
# B6: RB555 (ssRNA)
# RNA: GGAGGACGGCGCGCCUGGCAUAAGCCUCC
# modifications: RB551 with PS G8-G9
# B7: RB538 (ssRNA)
# RNA: GGAGGACGGCGCGCCUGGCAUAAGCCUCC
# modifications: RB537 with 2'-OMe G17
# B8: RB547 (ssRNA)
# RNA: GGAGGACGGCGCGCCUGGCAUAAGCCUCC
# modifications: RB540 with PS A6-C7
# B9: EF-22 T1 (RB434) (ssRNA)
# RNA: GGGAGGACGAUGCGGAUUCAACCCGCCUCUGGCAUAAGCCUACCC
# modifications: 2'-F C and U; 2'-OH A and G
# B10: EF-31 T3 (RB440) (ssRNA)
# RNA: GGGAGGACGAUGCGGUCUAAGCUGCGUCUGGCAUAAGCCUCCC
# modifications: 2'-F C and U; 2'-OH A and G
# B11: EF-2 T1 (ssRNA)
# RNA: GGGAGGACGAUGCGGUGCCAAAACACCCGUCUUGCAUAAGCCUCCUACGGCAACU
# modifications: 2'-F C and U; 2'-OH A and G
# B12: EF-31 T5 (RB442) (ssRNA)
# RNA: GGGAGGACGGCGGUCUAAGCUGCCUGGCAUAAGCCUCCC
# modifications: 2'-F C and U; 2'-OH A and G
# B13: EF-3 T4 (RB446) (ssRNA)
# RNA: GGGAGGACGGCGGAUCACACCGCCUUGCGUAAGCCUCCC
# modifications: 2'-F C and U; 2'-OH A and G
# B14: RB550 (ssRNA)
# RNA: GGAGGACGGCGCGCCUGGCAUAAGCCUCC
# modifications: RB540 with PS G9-C10
# B15: E2-6 (RB431) (ssRNA)
# RNA: GGGAGGACGAUGCGGAUAGACCGCGUCUGGCAUAAGCCUCCAAACACUCUGAUCCCAGACGACUCGCUGAGGAUCCGAGA
# modifications: 2'-F C and U; 2'-OH A and G
# B16: RB546 (ssRNA)
# RNA: GGAGGACGGCGCGCCUGGCAUAAGCCUCC
# modifications: RB540 with PS G5-A6
# B17: EF-3 T2 (RB430) (ssRNA)
# RNA: GGGAGGACGAUGCGGAUCACACCGCGUCUUGCGUAAGCCUCCU
# modifications: 2'-F C and U; 2'-OH A and G
# B18: EF-31 T1 (RB436) (ssRNA)
# RNA: GGGAGGACGAUGCGGUCUAAGCUGCGUCUGGCAUAAGCCUCACCUACU
# modifications: 2'-F C and U; 2'-OH A and G
# B19: RB488 (ssRNA)
# RNA: GGGAGGACGGCGCGCCUGGCAUAAGCCUCCC
# modifications: RB490 pattern but 2'-OH G19 and 2'-F C26
# B20: RB524 (ssRNA)
# RNA: GGGAGGACGGCGCGCCUGGCAUAAGCCUCCC
# modifications: RB520 with 2'-F C15
# B21: RB497 (ssRNA)
# RNA: GGGAGGACGGCGCGCCUGGCAUAAGCCUCCC
# modifications: RB490 with 2'-OMe G9
# B22: RB531 (ssRNA)
# RNA: GGGAGGACGGCGCGCCUGGCAUAAGCCUCCC
# modifications: RB526 with 2'-OMe G18
# B23: RB505 (ssRNA)
# RNA: GGGAGGACGGCGCGCCUGGCAUAAGCCUCCC
# modifications: RB490 with 2'-OMe A23
# B24: RB500 (ssRNA)
# RNA: GGGAGGACGGCGCGCCUGGCAUAAGCCUCCC
# modifications: RB490 with 2'-OMe C15
# B25: RB492 (ssRNA)
# RNA: GGGAGGACGGCGCGCCUGGCAUAAGCCUCCC
# modifications: RB490 with 2'-OMe A7
# B26: RB533 (ssRNA)
# RNA: GGGAGGACGGCGCGCCUUGCAUAAGCCUCCC
# modifications: RB526 pattern with 2'-F U18
# B27: RB499 (ssRNA)
# RNA: GGGAGGACGGCGCGCCUGGCAUAAGCCUCCC
# modifications: RB490 with 2'-OMe G10
# B28: RB532 (ssRNA)
# RNA: GGGAGGACGGCGCGCCUGGCGUAAGCCUCCC
# modifications: RB531 pattern with 2'-OMe G21
# B29: RB491 (ssRNA)
# RNA: GGGAGGACGGCGCGCCUGGCAUAAGCCUCCC
# modifications: RB490 with 2'-OMe G6
# B30: RB493 (ssRNA)
# RNA: GGGAGGACGGCGCGCCUGGCAUAAGCCUCCC
# modifications: RB490 with 2'-OMe C8
# B31: RB526 (ssRNA)
# RNA: GGGAGGACGGCGCGCCUGGCAUAAGCCUCCC
# modifications: RB524 with 2'-deoxy A7,G9
# B32: RB495 (ssRNA)
# RNA: GGGAGGACGGCGCGCCUGGCAUAAGCCUCCC
# modifications: RB490 with 2'-deoxy A7
# B33: RB506 (ssRNA)
# RNA: GGGAGGACGGCGCGCCUGGCAUAAGCCUCCC
# modifications: RB490 with 2'-OMe A24
# B34: RB535 (ssRNA)
# RNA: GGGAGGACGACGCGUCUGGCAUAAGCCUCCC
# modifications: RB526 pattern with 2'-OH A10 and 2'-F U15
# B35: RB534 (ssRNA)
# RNA: GGGAGGACGGCGCGCCUUGCGUAAGCCUCCC
# modifications: RB526 pattern with 2'-F U18 and 2'-OMe G21
# B36: RB519 (ssRNA)
# RNA: GGGAGGACGGCGCGCCUGGCAUAAGCCUCCC
# modifications: RB490 with 2'-OMe G6, 2'-deoxy A7
# B37: RB503 (ssRNA)
# RNA: GGGAGGACGGCGCGCCUGGCAUAAGCCUCCC
# modifications: RB490 with 2'-OMe A21
# B38: RB504 (ssRNA)
# RNA: GGGAGGACGGCGCGCCUGGCAUAAGCCUCCC
# modifications: RB490 with 2'-OMe U22
# B39: RB518 (ssRNA)
# RNA: GGGAGGACGGCGCGCCUGGCAUAAGCCUCCC
# modifications: RB490 with 2'-OMe G6,A7
# B40: RB496 (ssRNA)
# RNA: GGGAGGACGGCGCGCCUGGCAUAAGCCUCCC
# modifications: RB490 with 2'-deoxy C8
# B41: RB502 (ssRNA)
# RNA: GGGAGGACGGCGCGCCUGGCAUAAGCCUCCC
# modifications: RB490 with 2'-OMe G25
# B42: EF-31 T7 (RB444) (ssRNA)
# RNA: GGGAGGACGGCGCUAACGCCUGGCAUAAGCCUCCC
# modifications: 2'-F C and U; 2'-OH A and G
# B43: RB452 (ssRNA)
# RNA: GGGAGGACGGCGCUAACGCCUGGCAUAAGCCUCCC
# modifications: RB448 with 2'-OMe at most of Stem 1 (G1,G2,G3,A4 and 3' partners)
# B44: RB460 (ssRNA)
# RNA: GGGAGGACGGCGCUAACGCCUGGCAUAAGCCUCCC
# modifications: RB448 with 2'-OMe G22
# B45: RB455 (ssRNA)
# RNA: GGGAGGACGGCGCUAACGCCUGGCAUAAGCCUCCC
# modifications: RB448 with 2'-OMe C11,G12,C17,G18
# B46: EF-31 T6 (RB443) (ssRNA)
# RNA: GGGAGGACGGCGUCUAAGCGCCUGGCAUAAGCCUCCC
# modifications: 2'-F C and U; 2'-OH A and G
# B47: EF-31 T2 (RB439) (ssRNA)
# RNA: GGGAGGACGAUGCGGUCUAAGCUGCGUCUGGCAUAAGCCUCACC
# modifications: 2'-F C and U; 2'-OH A and G
# B48: EF-3 (RB429) (ssRNA)
# RNA: GGGAGGACGAUGCGGAUCACACCGCGUCUUGCGUAAGCCUCCUACUAACGGAUCGCAGACGACUCGCUGAGGAUCCGAGA
# modifications: 2'-F C and U; 2'-OH A and G
# B49: RB561 (ssRNA)
# RNA: GGAGGACGGCGCGCCUGGCAUAAGCCUCC
# modifications: RB540 with PS C7-G8 and G8-G9
# B50: RB554 (ssRNA)
# RNA: GGAGGACGGCGCGCCUGGCAUAAGCCUCC
# modifications: RB551 with PS C7-G8
# B51: EF-3 T5 (RB447) (ssRNA)
# RNA: GGGAGGACGGCGAUCACACGCCUUGCGUAAGCCUCCC
# modifications: 2'-F C and U; 2'-OH A and G
# Target: T1, Glycoprotein VI extracellular domain (Gln21-Lys267) (Homo sapiens, UniProt Q9HCN6 SEQ:1-247)
# T1 chain: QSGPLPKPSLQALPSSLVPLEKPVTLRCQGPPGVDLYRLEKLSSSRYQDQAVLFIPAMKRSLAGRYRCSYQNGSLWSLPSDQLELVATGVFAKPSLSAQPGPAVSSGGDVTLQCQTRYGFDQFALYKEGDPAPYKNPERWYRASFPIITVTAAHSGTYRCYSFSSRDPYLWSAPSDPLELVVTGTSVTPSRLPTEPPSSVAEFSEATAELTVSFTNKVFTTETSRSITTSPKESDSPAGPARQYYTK
# Experiment: filter
# Details: tags: C-terminal His6; R&D Systems 3627-GP; label: 5'-32P
# Method: Enrichment of the ligand libraries for GPVI was monitored in direct binding studies utilizing radiolabeled ligand RNA from respective rounds of SELEX and soluble GPVI. Binding studies were performed with trace P³² end-labeled RNA added to serial dilutions of GPVI in Binding Buffer F. To prepare radiolabeled RNAs for binding studies, one hundred picomoles of RNA was dephosphorylated with Bacterial Alkaline Phopshatase at 50° C. for 1 hour. The reaction was phenol:chloroform:isoamyl alcohol (25:24:1) extracted, chloroform: isoamyl:alcohol (24:1) extracted, and ethanol precipitated. Three pmoles of dephosphorylated RNA was end labeled with T4 Poylnucleotide Kinase with supplied buffer, and 20 μCi of γ-P³²-ATP and subsequently cleaned with a Biorad MicroBio Spin P-30 spin column. End-labeled RNA was diluted to a final concentration of 2000 cpm/μL and heat denatured at 65° C. for 5 minutes. RNA and GPVI dilutions were equilibrated at 37° C. prior to use. RNA (5 μL) was added to varying concentrations of GPVI (15 μL) at 37° C. and incubated together for 5 to 15 minutes. The complexed RNA/GPVI protein mixture was then loaded over a Protean BA85 nitrocellulose membrane, overlayed on a Genescreen Plus Nylon membrane, in a 96 well vacuum manifold system with washing. The membranes were exposed to a phosphorimager screen, scanned, and quantitated with a Molecular Dynamics Storm 840 Phosphorimager. The fraction bound was calculated by dividing the counts on the nitrocellulose by the total counts and adjusting for the background. Results for binding of enriched ligand libraries from round 10 E2 and round 10 EF of the SELEX as compared to the GPVI-naïve starting ligand library are shown in FIG. 3.
row,Binder,Kd [nM]
1,B1,15.5
2,B2,< 10
3,B3,15.5
4,B4,15.5
5,B5,15.5
6,B6,< 10
7,B7,15.5
8,B8,15.5
9,B9,15.5
10,B10,15.5
11,B11,15.5
12,B12,15.5
13,B13,15.5
14,B14,< 10
15,B15,15.5
16,B16,15.5
17,B17,15.5
18,B18,15.5
19,B19,< 10
20,B20,15.5
21,B21,< 10
22,B22,15.5
23,B23,< 10
24,B24,< 10
25,B25,15.5
26,B26,15.5

row,Binder,Kd [nM]
1,B27,15.5
2,B28,15.5
3,B29,< 10
4,B30,15.5
5,B31,15.5
6,B32,< 10
7,B33,< 10
8,B34,15.5
9,B35,15.5
10,B36,< 10
11,B37,< 10
12,B38,15.5
13,B39,15.5
14,B40,15.5
15,B41,< 10
16,B42,15.5
17,B43,15.5
18,B44,15.5
19,B45,15.5
20,B46,15.5
21,B47,15.5
22,B48,15.5
23,B49,< 10
24,B50,< 10
25,B51,15.5
